# Assay results published in IntAct's records for PubMed 32296183.
# B1: Dolichol kinase (Homo sapiens), Q9UPQ8 (parent)
# chain: MTRECPSPAPGPGAPLSGSVLAEAAVVFAVVLSIHATVWDRYSWCAVALAVQAFYVQYKWDRLLQQGSAVFQFRMSANSGLLPASMVMPLLGLVMKERCQTAGNPFFERFGIVVAATGMAVALFSSVLALGITRPVPTNTCVILGLAGGVIIYIMKHSLSVGEVIEVLEVLLIFVYLNMILLYLLPRCFTPGEALLVLGGISFVLNQLIKRSLTLVESQGDPVDFFLLVVVVGMVLMGIFFSTLFVFMDSGTWASSIFFHLMTCVLSLGVVLPWLHRLIRRNPLLWLLQFLFQTDTRIYLLAYWSLLATLACLVVLYQNAKRSSSESKKHQAPTIARKYFHLIVVATYIPGIIFDRPLLYVAATVCLAVFIFLEYVRYFRIKPLGHTLRSFLSLFLDERDSGPLILTHIYLLLGMSLPIWLIPRPCTQKGSLGGARALVPYAGVLAVGVGDTVASIFGSTMGEIRWPGTKKTFEGTMTSIFAQIISVALILIFDSGVDLNYSYAWILGSISTVSLLEAYTTQIDNLLLPLYLLILLMA
# B2: Catenin alpha-3 (Homo sapiens), Q9UI47-2 (parent)
# chain: MSAETPITLNIDPQDLQVQTFTVEKLLEPLIIQVTTLVNCPQNPSSRKKGRSKRASVLLASVEEATWNLLDKGEKIAQEATVLKDELTASLEEVRKESEALKVSAERFTDDPCFLPKREAVVQAARALLAAVTRLLILADMIDVMCLLQHVSAFQRTFESLKNVANKSDLQKTYQKLGKELENLDYLAFKRQQDLKSPNQRDEIAGARASLKENSPLLHSICSACLEHSDVASLKASKDTVCEEIQNALNVISNASQGIQNMTTPPEPQAATLGSALDELENLIVLNPLTVTEEEIRPSLEKRLEAIISGAALLADSSCTRDLHRERIIAECNAIRQALQDLLSEYMNNAGKKERSNTLNIALDNMCKKTRDLRRQLRKAIIDHVSDSFLDTTVPLLVLIEAAKNGREKEIKEYAAIFHEHTSRLVEVANLACSMSTNEDGIKIVKIAANHLETLCPQIINAALALAARPKSQAVKNTMEMYKRTWENHIHVLTEAVDDITSIDDFLAVSGMFLFF
# partner: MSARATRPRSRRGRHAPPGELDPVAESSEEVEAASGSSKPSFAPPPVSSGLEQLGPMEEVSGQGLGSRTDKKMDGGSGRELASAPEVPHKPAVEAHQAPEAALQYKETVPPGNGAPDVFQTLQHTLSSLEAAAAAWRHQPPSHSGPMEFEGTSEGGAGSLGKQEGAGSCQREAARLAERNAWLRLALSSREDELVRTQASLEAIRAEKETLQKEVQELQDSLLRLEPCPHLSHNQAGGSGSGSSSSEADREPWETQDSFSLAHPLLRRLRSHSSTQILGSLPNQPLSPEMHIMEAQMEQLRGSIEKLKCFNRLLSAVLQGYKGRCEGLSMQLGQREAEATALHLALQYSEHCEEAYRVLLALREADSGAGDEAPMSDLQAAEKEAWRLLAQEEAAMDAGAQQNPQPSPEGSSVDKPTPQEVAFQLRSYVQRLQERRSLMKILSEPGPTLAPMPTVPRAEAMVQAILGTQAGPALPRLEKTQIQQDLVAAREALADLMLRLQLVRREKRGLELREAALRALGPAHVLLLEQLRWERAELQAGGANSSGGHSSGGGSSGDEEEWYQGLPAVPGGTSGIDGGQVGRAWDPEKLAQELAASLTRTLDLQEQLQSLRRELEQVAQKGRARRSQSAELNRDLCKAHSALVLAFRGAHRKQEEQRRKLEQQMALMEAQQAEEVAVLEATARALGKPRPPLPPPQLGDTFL
# Variants of: B1
# Details: with kca10_human KCNA10, Q16322
# Sequence of kca10_human KCNA10, Q16322 (Q16322 whole entry): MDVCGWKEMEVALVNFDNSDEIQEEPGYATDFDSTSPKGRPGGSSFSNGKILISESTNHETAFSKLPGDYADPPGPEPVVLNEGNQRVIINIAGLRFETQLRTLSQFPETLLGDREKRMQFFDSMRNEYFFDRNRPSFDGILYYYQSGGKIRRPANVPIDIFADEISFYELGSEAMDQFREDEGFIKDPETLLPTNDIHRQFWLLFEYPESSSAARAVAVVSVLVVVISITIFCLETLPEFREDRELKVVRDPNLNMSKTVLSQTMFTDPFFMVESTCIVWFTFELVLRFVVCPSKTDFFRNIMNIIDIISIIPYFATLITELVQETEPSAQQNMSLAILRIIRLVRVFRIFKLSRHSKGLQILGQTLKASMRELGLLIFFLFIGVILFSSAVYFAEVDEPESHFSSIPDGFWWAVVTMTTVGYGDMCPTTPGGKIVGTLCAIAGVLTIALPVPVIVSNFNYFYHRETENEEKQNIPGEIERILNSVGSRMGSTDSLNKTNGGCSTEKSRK
row,effect of a mutation on the interaction,Variant
1,disrupting interaction strength,Y441S

# Variants of: B1
# Details: with kcna6_human KCNA6, P17658
# Sequence of kcna6_human KCNA6, P17658 (P17658 whole entry): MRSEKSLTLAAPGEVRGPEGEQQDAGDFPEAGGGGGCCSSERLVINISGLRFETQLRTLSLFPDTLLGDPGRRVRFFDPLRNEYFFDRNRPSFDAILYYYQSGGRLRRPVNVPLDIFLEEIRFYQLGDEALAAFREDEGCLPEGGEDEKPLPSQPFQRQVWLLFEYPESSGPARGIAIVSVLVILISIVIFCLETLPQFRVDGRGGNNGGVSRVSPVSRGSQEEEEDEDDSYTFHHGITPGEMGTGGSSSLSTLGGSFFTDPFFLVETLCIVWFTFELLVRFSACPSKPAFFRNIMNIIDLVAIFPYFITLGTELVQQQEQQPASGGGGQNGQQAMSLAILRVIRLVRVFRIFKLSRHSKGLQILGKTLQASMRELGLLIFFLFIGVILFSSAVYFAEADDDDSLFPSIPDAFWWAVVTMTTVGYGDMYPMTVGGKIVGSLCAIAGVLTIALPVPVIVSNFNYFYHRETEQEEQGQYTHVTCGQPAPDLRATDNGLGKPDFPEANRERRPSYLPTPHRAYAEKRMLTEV
row,effect of a mutation on the interaction,Variant
1,disrupting interaction strength,Y441S

# Variants of: B1
# Details: with eda_human EDA
row,effect of a mutation on the interaction,Variant
1,disrupting interaction strength,Y441S

# Variants of: B1
# Details: with apbp2_human APPBP2, Q92624
# Sequence of apbp2_human APPBP2, Q92624 (Q92624 whole entry): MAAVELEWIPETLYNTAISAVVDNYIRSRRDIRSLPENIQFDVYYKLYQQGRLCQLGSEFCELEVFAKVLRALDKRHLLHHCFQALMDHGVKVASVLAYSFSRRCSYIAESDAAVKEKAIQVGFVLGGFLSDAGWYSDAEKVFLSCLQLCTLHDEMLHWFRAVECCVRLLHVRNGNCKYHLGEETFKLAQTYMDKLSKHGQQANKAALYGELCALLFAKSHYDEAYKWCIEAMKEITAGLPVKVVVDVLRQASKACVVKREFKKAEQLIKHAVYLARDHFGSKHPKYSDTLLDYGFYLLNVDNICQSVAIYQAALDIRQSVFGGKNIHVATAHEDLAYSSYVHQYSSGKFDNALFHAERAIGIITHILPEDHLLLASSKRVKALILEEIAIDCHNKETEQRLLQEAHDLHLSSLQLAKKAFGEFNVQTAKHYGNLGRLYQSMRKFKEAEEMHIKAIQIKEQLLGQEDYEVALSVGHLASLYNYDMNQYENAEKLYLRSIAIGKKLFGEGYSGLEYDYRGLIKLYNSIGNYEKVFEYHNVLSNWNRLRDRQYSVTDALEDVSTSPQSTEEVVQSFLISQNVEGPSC
row,effect of a mutation on the interaction,Variant
1,disrupting interaction strength,Y441S

# Variants of: B1
# Details: with kcna1_human KCNA1, Q09470
# Sequence of kcna1_human KCNA1, Q09470 (Q09470 whole entry): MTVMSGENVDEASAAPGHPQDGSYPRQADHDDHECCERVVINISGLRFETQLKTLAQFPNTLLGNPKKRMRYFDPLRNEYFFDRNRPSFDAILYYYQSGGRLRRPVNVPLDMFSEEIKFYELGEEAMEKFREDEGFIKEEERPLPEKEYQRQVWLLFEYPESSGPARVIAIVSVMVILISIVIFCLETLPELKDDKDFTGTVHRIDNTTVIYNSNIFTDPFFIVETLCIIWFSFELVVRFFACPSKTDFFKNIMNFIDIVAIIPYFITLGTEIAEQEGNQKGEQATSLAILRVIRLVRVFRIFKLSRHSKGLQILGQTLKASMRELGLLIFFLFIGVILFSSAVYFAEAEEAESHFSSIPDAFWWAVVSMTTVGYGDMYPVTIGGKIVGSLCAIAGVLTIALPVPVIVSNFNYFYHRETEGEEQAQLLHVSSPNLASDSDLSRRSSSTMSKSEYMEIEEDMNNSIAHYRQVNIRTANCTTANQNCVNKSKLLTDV
row,effect of a mutation on the interaction,Variant
1,disrupting interaction strength,Y441S

# Variants of: B1
# Details: with ylat2_human SLC7A6, Q92536
# Sequence of ylat2_human SLC7A6, Q92536 (Q92536 whole entry): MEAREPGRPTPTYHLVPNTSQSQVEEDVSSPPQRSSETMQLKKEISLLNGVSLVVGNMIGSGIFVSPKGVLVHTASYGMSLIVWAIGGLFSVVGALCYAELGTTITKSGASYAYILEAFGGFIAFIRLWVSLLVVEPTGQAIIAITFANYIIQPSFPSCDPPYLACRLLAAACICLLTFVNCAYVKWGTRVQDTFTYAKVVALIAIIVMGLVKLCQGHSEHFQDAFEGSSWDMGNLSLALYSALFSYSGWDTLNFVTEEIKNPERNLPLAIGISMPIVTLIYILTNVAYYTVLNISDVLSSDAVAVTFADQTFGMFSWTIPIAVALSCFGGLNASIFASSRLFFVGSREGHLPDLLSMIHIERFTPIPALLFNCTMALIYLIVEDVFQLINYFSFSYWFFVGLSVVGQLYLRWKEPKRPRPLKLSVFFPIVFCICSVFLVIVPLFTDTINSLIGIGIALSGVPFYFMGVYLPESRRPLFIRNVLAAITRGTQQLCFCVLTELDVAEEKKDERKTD
row,effect of a mutation on the interaction,Variant
1,with no effect,Y441S

# Variants of: B1
# Details: with kca10_human KCNA10, Q16322
# Remark: another data set of the same source
row,effect of a mutation on the interaction,Variant
1,with no effect,Y441S

# Variants of: B1
# Details: with kcna1_human KCNA1, Q09470
# Remark: another data set of the same source
row,effect of a mutation on the interaction,Variant
1,with no effect,Y441S

# Variants of: B1
# Details: with synpr_human SYNPR
row,effect of a mutation on the interaction,Variant
1,disrupting interaction strength,Y441S

# Variants of: B1
# Details: with tm45b_human TMEM45B
row,effect of a mutation on the interaction,Variant
1,disrupting interaction strength,Y441S

# Variants of: B1
# Details: with cd79a_human CD79A
row,effect of a mutation on the interaction,Variant
1,with no effect,Y441S

# Variants of: B1
# Details: with cxa8_human GJA8, P48165
# Sequence of cxa8_human GJA8, P48165 (P48165 whole entry): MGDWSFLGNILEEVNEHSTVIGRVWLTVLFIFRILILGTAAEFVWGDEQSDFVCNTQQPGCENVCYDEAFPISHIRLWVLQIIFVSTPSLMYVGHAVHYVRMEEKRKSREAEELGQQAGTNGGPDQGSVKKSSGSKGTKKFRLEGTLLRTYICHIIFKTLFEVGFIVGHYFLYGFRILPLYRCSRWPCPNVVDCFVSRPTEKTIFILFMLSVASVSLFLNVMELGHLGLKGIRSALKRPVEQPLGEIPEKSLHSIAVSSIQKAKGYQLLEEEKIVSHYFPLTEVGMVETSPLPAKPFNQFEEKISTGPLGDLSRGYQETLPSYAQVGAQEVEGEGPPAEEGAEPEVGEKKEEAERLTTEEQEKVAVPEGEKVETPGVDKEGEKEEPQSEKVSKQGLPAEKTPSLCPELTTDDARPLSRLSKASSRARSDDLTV
row,effect of a mutation on the interaction,Variant
1,with no effect,Y441S

# Variants of: B2
# Details: with usbp1_human USHBP1, Q8N6Y0
row,effect of a mutation on the interaction,Variant
1,disrupting interaction strength,V94D
